± gives the standard deviation of the averaged measurements.
Columns and labels:
Saccharomyces cerevisiae [1] = assay: protein stability index of tFT-peptide fusion (C-terminal peptide) (PSI (0-1 scale)); higher = more stable (slower turnover); details: genetic background: wild type; temperature: 30 C
Saccharomyces cerevisiae [2] = assay: as above
Method: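 MPS profiling in S. cerevisiae of the tFT-X12 degron library: putative degron peptides plus stable controls, 12 aa, fused to the C-terminus of a sfGFP-mCherry timer. Cells are FACS-sorted into 8 mCherry/sfGFP bins and deep-sequenced. PSI runs from 0 (unstable) to 1 (stable). Backgrounds are wild type, das1Δ and doa10Δ at 30 °C, and wild type, das1Δ, cdc34-1 and cdc53-1 at 37 °C; 2-3 technical replicates each.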

[3] = genetic background: cdc34-1, temperature: 37 C
[4] = genetic background: cdc53-1, temperature: 37 C
[5] = genetic background: das1 deletion, temperature: 30 C
[6] = genetic background: das1 deletion, temperature: 37 C
[7] = genetic background: doa10 deletion, temperature: 30 C
[8] = genetic background: wild type, temperature: 30 C
[9] = genetic background: wild type, temperature: 37 C
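Note: PSI is a weighted mean of sequencing reads over stability bins, variants kept only with over 10 reads, mCherry proximal and sfGFP distal, peptide attached via GGGS linker.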

Sequence	protein stability index (Saccharomyces cerevisiae [1])	protein stability index (Saccharomyces cerevisiae [2]; [3])	protein stability index (Saccharomyces cerevisiae [2]; [4])	protein stability index (Saccharomyces cerevisiae [2]; [5])	protein stability index (Saccharomyces cerevisiae [2]; [6])	protein stability index (Saccharomyces cerevisiae [2]; [7])	protein stability index (Saccharomyces cerevisiae [2]; [8])	protein stability index (Saccharomyces cerevisiae [2]; [9])
VFFTSLPPLLRA	0.458 ± 0.0096	0.433 ± 0.015	0.4543 ± 0.0034	0.372 ± 0.021	0.51 ± 0.01	0.341 ± 0.006	0.37 ± 0.032	0.486 ± 0.013
FRLFSLWFCWVR	0.348 ± 0.015	0.13 ± 0.0073	0.0999 ± 0.022	0.227 ± 0.025	0.297 ± 0.014	0.365 ± 0.013	0.212 ± 0.034	0.26 ± 0.025
LRFVCALGYCVW	0.471 ± 0.0098	0.577 ± 0.042	0.645 ± 0.019	0.485 ± 0.027	0.6011 ± 0.0042	0.443 ± 0.015	0.461 ± 0.029	0.574 ± 0.0089
FFLFFLSFGCFL	0.529 ± 0.048	0.489 ± 0.078	0.533 ± 0.031	0.421 ± 0.029	0.5391 ± 0.0019	0.4551 ± 0.0028	0.459 ± 0.032	0.505 ± 0.016
VAFGVASGWCWF	0.488 ± 0.02	0.748 ± 0.048	0.8066 ± 0.0046	0.687 ± 0.016	0.848 ± 0.0032	0.373 ± 0.0093	0.397 ± 0.015	0.6902 ± 0.0057
VIYYVRVGLVLS	0.203 ± 0.025	0.0324 ± 0.0007	0.115 ± 0.053	0.119 ± 0.03	0.167 ± 0.0084	0.108 ± 0.016	0.117 ± 0.045	0.126 ± 0.016
RAPPPSSLLSPP	0.402 ± 0.013	0.6612 ± 0.0063	0.724 ± 0.016	0.6499 ± 0.0057	0.718 ± 0.027	0.687 ± 0.0087	0.671 ± 0.029	0.706 ± 0.037
VCLLGWGVRLVS	0.505 ± 0.079	0.667 ± 0.031	0.7294 ± 0.0045	0.609 ± 0.038	0.72374 ± 7.5e-05	0.321 ± 0.0052	0.371 ± 0.023	0.576 ± 0.01
WFSRCVSLGLCW	0.4176 ± 0.0036	0.2808 ± 0.0017	0.3093 ± 0.0024	0.29 ± 0.019	0.398 ± 0.018	0.274 ± 0.012	0.302 ± 0.029	0.363 ± 0.017
PPTRVPVTLFLV	0.153 ± 0.013	0.395 ± 0.013	0.673 ± 0.017	0.619 ± 0.0097	0.6761 ± 0.0013	0.0767 ± 0.022	0.0832 ± 0.011	0.09 ± 0.0034
GDINRNTRYLEK	0.556 ± 0.18	0.6705 ± 0.0048	0.7508 ± 0.0049	0.648 ± 0.029	0.698 ± 0.0092	0.649 ± 0.0063	0.6339 ± 0.0032	0.702 ± 0.024
LNVEEGGGLENV	0.536 ± 0.1	0.698 ± 0.043	0.727 ± 0.023	0.631 ± 0.026	0.719 ± 0.024	0.661 ± 0.044	0.637 ± 0.044	0.699 ± 0.018
CGLLSALSCLVF	0.511 ± 0.02	0.507 ± 0.033	0.54 ± 0.011	0.442 ± 0.019	0.5533 ± 0.0036	0.4185 ± 0.0022	0.45 ± 0.017	0.552 ± 0.023
VGRANLSVIRKV	0.436 ± 0.013	0.632 ± 0.016	0.733 ± 0.016	0.636 ± 0.014	0.715 ± 0.019	0.243 ± 0.011	0.29 ± 0.024	0.588 ± 0.013
LCLLCWIPCSFR	0.524 ± 0.048	0.629 ± 0.017	0.62751 ± 0.00045	0.451 ± 0.029	0.649 ± 0.0077	0.486 ± 0.035	0.4661 ± 0.0017	0.616 ± 0.0074
PFFLLAGITVAC	0.273 ± 0.016	0.0507 ± 0.023	0.0625 ± 0.026	0.177 ± 0.031	0.203 ± 0.0027	0.139 ± 0.0038	0.15 ± 0.025	0.16 ± 0.0058
HLKKKLKIRLIN	0.238 ± 0.031	0.488 ± 0.16	0.685 ± 0.02	0.645 ± 0.011	0.698 ± 0.036	0.108 ± 0.01	0.116 ± 0.02	0.171 ± 0.018
PDCRPPLVRCLL	0.796 ± 0.03	0.9585 ± 0.0082	0.902 ± 0.071	0.827 ± 0.028	0.9164 ± 0.0047	0.8334 ± 0.0043	0.822 ± 0.035	0.936 ± 0.019
ETQKEKRENAKP	0.713 ± 0.0091	0.649 ± 0.028	0.70222 ± 0.00044	0.646 ± 0.032	0.71 ± 0.035	0.6492 ± 0.0039	0.623 ± 0.016	0.677 ± 0.024
ILDRRPRTFALV	0.186 ± 0.0083	0.572 ± 0.017	0.644 ± 0.018	0.633 ± 0.02	0.692 ± 0.013	0.0946 ± 0.015	0.113 ± 0.011	0.149 ± 0.008

Sequence	protein stability index (Saccharomyces cerevisiae [1])	protein stability index (Saccharomyces cerevisiae [2]; [3])	protein stability index (Saccharomyces cerevisiae [2]; [4])	protein stability index (Saccharomyces cerevisiae [2]; [5])	protein stability index (Saccharomyces cerevisiae [2]; [6])	protein stability index (Saccharomyces cerevisiae [2]; [7])	protein stability index (Saccharomyces cerevisiae [2]; [8])	protein stability index (Saccharomyces cerevisiae [2]; [9])
VCMHIVLLAASP	0.193 ± 0.002	0.244 ± 0.02	0.317 ± 0.017	0.187 ± 0.0068	0.284 ± 0.014	0.201 ± 0.028	0.202 ± 0.021	0.263 ± 0.011
LYIQWVSRWSVQ	0.504 ± 0.025	0.611 ± 0.029	0.664 ± 0.083	0.547 ± 0.035	0.669 ± 0.021	0.388 ± 0.011	0.415 ± 0.019	0.5818 ± 0.003
GFGRRGQFGGTG	0.574 ± 0.14	0.86 ± 0.079	0.863 ± 0.016	0.607 ± 0.019	0.801 ± 0.048	0.542 ± 0.039	0.567 ± 0.04	0.835 ± 0.059
SCRCIIFVCCFW	0.384 ± 0.011	0.256 ± 0.0043	0.404 ± 0.032	0.262 ± 0.025	0.465 ± 0.057	0.235 ± 0.0024	0.237 ± 0.034	0.388 ± 0.023
LVVIYPLLSSPV	0.4643 ± 0.00088	0.564 ± 0.0066	0.567 ± 0.019	0.43 ± 0.027	0.578 ± 0.0074	0.402 ± 0.014	0.43 ± 0.022	0.562 ± 0.0072
FPYARHLSVLLL	0.472 ± 0.029	0.598 ± 0.04	0.662 ± 0.02	0.564 ± 0.018	0.681 ± 0.022	0.371 ± 0.0079	0.392 ± 0.025	0.54 ± 0.007
SVVFFYPPIFHA	0.437 ± 0.044	0.636 ± 0.057	0.7392 ± 0.006	0.678 ± 0.053	0.713 ± 0.016	0.28 ± 0.0055	0.326 ± 0.027	0.549 ± 0.011
VLVCYFCRYISH	0.485 ± 0.0091	0.479 ± 0.059	0.579 ± 0.052	0.413 ± 0.046	0.573 ± 0.011	0.365 ± 0.0057	0.398 ± 0.021	0.5316 ± 0.0028
VYCCVRSLRVAI	0.496 ± 0.0097	0.553 ± 0.0082	0.677 ± 0.047	0.471 ± 0.035	0.6347 ± 0.0019	0.395 ± 0.022	0.428 ± 0.023	0.5746 ± 0.0014
VLARGFHCMYFC	0.484 ± 0.048	0.68 ± 0.025	0.736 ± 0.022	0.621 ± 0.022	0.75484 ± 0.00037	0.444 ± 0.022	0.447 ± 0.021	0.623 ± 0.02
VIQNKKKNKITS	0.372 ± 0.027	0.599 ± 0.048	0.6883 ± 0.0049	0.642 ± 0.013	0.736 ± 0.0094	0.177 ± 0.021	0.168 ± 0.015	0.284 ± 0.018
FGVLLVWWYGLF	0.289 ± 0.039	0.236 ± 0.016	0.367 ± 0.027	0.253 ± 0.05	0.4335 ± 0.0032	0.1894 ± 0.0014	0.204 ± 0.016	0.314 ± 0.0076
DYSVIPSLALLP	0.218 ± 0.021	0.692 ± 0.013	0.73118 ± 3.3e-05	0.657 ± 0.028	0.733 ± 0.015	0.669 ± 0.022	0.673 ± 0.0088	0.714 ± 0.02
YPVAWSSAIIIR	0.435 ± 0.025	0.438 ± 0.041	0.4531 ± 0.0036	0.362 ± 0.022	0.5314 ± 0.0037	0.423 ± 0.018	0.371 ± 0.017	0.506 ± 0.0061
RVFRRFCCVISM	0.366 ± 0.025	0.312 ± 0.034	0.342 ± 0.018	0.342 ± 0.029	0.49 ± 0.045	0.437 ± 0.027	0.339 ± 0.022	0.439 ± 0.015
GSLLNLSLRWLV	0.242 ± 0.0062	0.626 ± 0.012	0.7289 ± 0.0067	0.6638 ± 0.0066	0.739 ± 0.0077	0.13932 ± 9.1e-05	0.138 ± 0.022	0.226 ± 0.0075
SVLSFGVFCLVG	0.538 ± 0.13	0.553 ± 0.043	0.65407 ± 0.00051	0.524 ± 0.023	0.61 ± 0.0077	0.4185 ± 0.0031	0.427 ± 0.033	0.527 ± 0.013
IIFACFYGVFLM	0.187 ± 0.0052	0.0485 ± 0.025	0.0619 ± 0.03	0.141 ± 0.019	0.169 ± 0.024	0.282 ± 0.052	0.0949 ± 0.036	0.109 ± 0.0083
FSVLRLVIVSLL	0.0995 ± 0.012	0.227 ± 0.012	0.503 ± 0.067	0.35 ± 0.037	0.537 ± 0.019	0.0564 ± 0.004	0.0846 ± 0.04	0.0783 ± 0.029

From the supplement of paper PMC10724198
